We go through ten substances from PMC4297426.

For the test, the target named is Gal4 (BD)-human NP: nucleoprotein of the contemporary human IAV H3N2 strain A/Ca/07/04 (influenza A virus H3N2, strain A/Ca/07/04 (human)). The experiment in a line: two-hybrid.

Substance “Acyl-CoA thioesterase 13 (ACOT13) (from UniProt Q9NPJ3 1-140) (natural protein)” returned a β-Gal activity of 6.9 Miller units.
“Transformer 2 beta homolog (Drosophila) (TRA2B) (from UniProt P62995 1-288) (natural protein)” showed a β-Gal activity of 1.9 Miller units.
The figure for “Potassium channel tetramerisation domain containing 9 (KCTD9) (domain or fragment)” is 5 Miller units; for “ATPase, Na+/K+ transporting, beta 1 polypeptide (ATP1B1) (domain or fragment)” it is 3.4 Miller units.
“Myb/SANT-like DNA-binding domain containing 3 (MSANTD3) (domain or fragment)” yielded a β-Gal activity of 13.9 Miller units.
“phosphoribosylaminoimidazole carboxylase, phosphoribosylaminoimidazole succinocarboxamide synthetase (PAICS) (from UniProt P22234 1-425) (natural protein)” showed a β-Gal activity of 2.2 Miller units.
In turn, “FLJ30306 (…: Homo sapiens uncharacterized LOC101059922, mRNA) (natural protein)” came in with a β-Gal activity of 1.9 Miller units.
The substance “Cytoskeleton associated protein 5 (CKAP5) (domain or fragment)” displayed a β-Gal activity of 70.1 Miller units.
Substance “Solute carrier family 30 (zinc transporter), member 9 (SLC30A9) (domain or fragment)” showed a β-Gal activity of 82.9 Miller units.
“Proteasome (prosome, macropain) activator subunit 2 (PA28B) (from UniProt Q9UL46 1-239) (natural protein)”: the β-Gal activity was 6.7 Miller units.
